Measured values taken from paper PMC5437702.

Molecular target: activatory Fc gamma receptor III (FcγRIII), mouse (mouse) (UniProt P08508)
Test: SPR

UniProt P08508, sequence (P08508 31-261): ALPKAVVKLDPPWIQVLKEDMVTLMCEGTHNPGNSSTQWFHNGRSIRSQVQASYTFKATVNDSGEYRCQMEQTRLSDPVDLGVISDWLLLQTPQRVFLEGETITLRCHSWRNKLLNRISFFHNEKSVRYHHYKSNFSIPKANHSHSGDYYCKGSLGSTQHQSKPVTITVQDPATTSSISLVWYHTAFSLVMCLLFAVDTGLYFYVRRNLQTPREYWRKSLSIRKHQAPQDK

Substance: anti-CD25 clone PC-61 rat IgG1 (αCD25-r1) (antibody)
- A/I ratio (affinity for activatory FcγRIII against inhibitory FcγRIIb): < 1
